Measurements from the DeepSol protein solubility set.

Experiment: soluble on expression in E. coli; label from the status in PepcDB or PDB records

| Sequence | soluble on expression in E. coli |
| --- | --- |
| MSLAFGNYPFLTVSEITYTNPINSNIVSEDFDVEIGEATNGTVTSRVGIRVKDITRHIGIFGSTGSGKTNTAILLASQLNAKGVKVIILDWHGEYDQLLKNGFRIYDEKTIVKINPLHLIDLDVEDTVDIIGDVLQLTDPQRFLLYTILLKLKSYRKFSINQLLEVINSIEDTSYWMRDVKYALLRKIFILFTPTASKLFSTVDETSLNDFPDYLTSSTIINLGFISNLKLRKLYSLFLIKLIVESYIREGHHHHHH | soluble |
| MSLAIIEEARSGQITDEMKEISKLEGIPVEKVRNRISECKIILIRNAKYPSKKLVPIGKGLTTKVNINIGTSDEVVNLQMELEKVKVANRWGDTLMDLSTGGDLDDIRREIIRASELPVGTVPVYQVFIESFKKKSGGAYFTEDELLSTVEKHLKDGVAFMTIHAGITKELAIRALKSNRIIPIVSRGGDMIAGWMIHNNSENPYRKHWGYLLEMFKEYDAVISLGDALRPGATGDAHDEFQVGELLETARLVKSALKEGVQVMVEGPGHVPLNEIAWDVKLMKKLTGGVPYYVLGPLPIDVGAPYDHIASAIGAAISSAAGADLLCYLTPAEHLGLPTVKQVEEGAIAYRIAAHAGDVVKLGRRVRKWDDEVSYYRGKLEWDNMISRLIDPQRAYQVYTQFGIPKVKACTMCGGYCPMMWAMDQVRKIGSSSSLEGHHHHHH | soluble |
| MSLAIPTRNEVSDDLKWDLSRVFKDDQEWEQEYNRVAIEIKNLGRFKGNLAKSGQDLYEGITEILSVNRRLEKVYVYATMSSDVDTSNTHYLGLVAKAQSLANQMSAAISFVDPEILSIPEETLAKFMQDEPRLKEYQHRLEQITKKRPHTLPASEEKIIAAAGDAMGTSANTFNVLTNSDMEYGYVQDEDGEMVQLSDGLYSLLIQSQDRNVRKNAFDVMYASYGQFENSLASTLSGEVKAHNFNAQVHKYNSAREAALSENGVPTAVYDTLVKEVNSHLNLLHRYVSLRKKILGLSDLQMYDMYVPLTGEPSLSYNFEEAKNEARRALAPLGKDYLEHVDYIFNNRVIDVVESQNKVTGAYSGGSYDTDPYELLNWEDNLDSLYTLVHETGHSVHSWYTRNTQPYVYGDYPIFVAEIASTTNENILTEYFLDKITDPKTRAFVLNHYLDSFKGTLFRQTQFAEFEQFIHEADANGQPLTADVLDEFYGNLNQRYYGDSVEPGGEIAKEWARIPHFYYNFYVYQYATGFAAATALANNVVHGTDKERTAYINFLKAGSSDYPTEIMKRAGVDMTKADYLKDAFNTFEERLNEFEKIVDELKTEGHHHHHH | soluble |
| MSLAKIVFCILDGLGDTTHTLPDGRKGTCLEMAKRPTLDAIAKAGTVGLNDSVSPGYPCGSDTAHLSLFGYPPFTYYNGRGAFEALGGGMDMEPGSIAFKSNFSTMYGECVKYRRCDRHFEVEGPILCKDLDGIKIPEFPEVKVSVVYATEHRCAVKILAPGLSDKIAGTDPIHDDLDLIKSYPLDDSPEAAYTAKVVNALSDTFRKALENHPINIERRKQGKEVANVILLRGPGMRLSCQPFGERHNIKAFLIAPTAIIAGLGISVGLPVIKVKGATGDMDSNFNAKAIAAAQELDGDKYDMGIIHMKGIDDAAHDGKIAVKTELIERADKAIHLLIEKLAELEEKNGDRFIVAVTADHSTSCTWKDHCFEPVPFIVAEVAKVAQELGIKHVDQSKKPELVPTDSVHEFTETAACKGSLGRFCGAQMMNLLFHFAGRKQEEGHHHHHH | soluble |
| MSLAKNVNASVEETFKKSGIPVKVDKSNGQVTFGEKTMFDVDSDVLKPEAKEMLKMFVPKYIETIYKDYGDYISKIVIEGHTDDVGSYIYNLDLSQRRAYSVAKFIVGDEIGDYKYKDKVTKHIIAIGRSKAELIKNGDNSVNRDASRRVELKYEININQNKEGHHHHHH | soluble |
| MSLANKKFWLITDTHFDDEFTVGSSSKCLAIDCCHSNSIPRKGQENFISGSCGDYNCYSPLNVSESAFDYIAKHQSESKLIFWLMDVVPGDVITQSKETNKKRIQLQVEALKKRLSGFRIYPVPGNHDYWLSSNWQYPPQNQWMLDFMGDLFKDWLSPNALEQFKKGGFYTELIDSGVRIIALYLAYVDVYGSHCNEYVENDPAGMMKWFNETLELARKNGERVILLSHEGVGLKESGTIDVVPKFNEDFSYAMNEYSDIIISHLSGHSHFNSFRVLPNITKPTFHIIMNPAMTSFKNLNPRFRLYEYDRKNIKDYTNYMLNINKCNKNNKFEWEIEYNAKELFGIEEYTTKNLKEFIEQLAVDDELWTKFDSHYSTINRKCEGNCRKDLLCSIHCMKESEFITCINQKEGHHHHHH | not soluble |
| MSLANSKVYAIPTTCNSGIFVGRAENLDAIDIMKDPNYTGKVSIVGFDVANCSDNNSDDNHKNHNETAIGNGPTPKWHNSNYTSDFLNVAQQGKDTMISATLPNPVPSQEIGSVGQIAYGSQISDADFKELASVDIKNINQSSPYFVRNYGQMVSKLGDIIEKYHTELMDSNGNATIYLRPFHEMNSPWLWWGFKNQDDFKNLWIHLHNYLVNDRKFTWLKFCFAASAGDPSLDPAHVKGANSYYPGNNYVDTVALDGYSDDPSNDSGIKKQYAELTATGKPFGFAELGAKVDGDFVNVPNERTQQNVETRPFNYQKWSDAIQKYYSNAKYCIVFGGAYDPRNNLHGTSLFSNEGHHHHHH | soluble |
| MSLAQNSSIDYPSYQKRNTDALEISRIVRNDTATILYMDAYSRPNYWIRLASELSLHGVQSGKKYPVIRSQGFELDKQVYMPASGNVTFTLQFAPIDPQDRTIDFVESNNEEDFRIEGICLDASVPKKKVHCHLAGKMANRPQTSRLILIESNKNTRGTPWISIPVRNGVFEYDFYTDHEKAYELICWDDLLNGCWYPVTFFAENGTVSFTISAIDARPPYRIETLNSLTTALRLFEAEGKDKFSFDELNARRDTLEKYGRFESEAMQALWKKFDQVKDNPEERNKLFRERDRLEESGEAFTKEAKALIKEREQLFRKKVIWETEQASQHPSLVGLFILKMKVENARKDEDVTPYLEAFQKVYASRYPEHPYTREMQMFIDNNQPKTGNRFIDFSAPDLNGNMVQLSEQIRGKVALIDLWASWCGPCRTTSKQLIPIYEKYKDRGFTVIGVAREQNSDIRMREAIRKDGYPWLNLIELNDVQQIWSKYRIPNAAGGTFLVNAQGIILAVNPTAEEVERILQKELEGHHHHHH | soluble |
| MSLAQQKPVEKVDSDGVYLMPDQMPEFPGGMQAMMKFLTTNIKYPVEAQKKGVSGRVIVQFVIMEDGTLDQAKVVRGVDPLLDEEALRVVKLMPKWKPGMDRGEAVKVRFTAPIMFNLSRSEAQRPTFPELVVPIGQEVENRSLQGVWQSCVAQPGEHGYKILLLPVLKIVSPDQTFMNIMTAGMNGRSNAIIYCQGEYSLPSDGTYVEMVEKSVDPVFIQGVKNEISVERLHDNLIKLSFTVPGQGRKVTEYWFRAPSPDVKIMAEGHHHHHH | soluble |
| MSLAQTLGYIYRKRMIDSIEEFSRQIETTYQINKFWDNFEQIREVQNTKIDKVKEKQQKLMERLSSLYDKVEGQKEMGSMNNSNISAAESEWFAEIKRSVIEFNSYVRKASTNHQELEFIKEQQAQIANQKPDISSENGKEWNDLQQLLREGHHHHHH | soluble |
| MSLARELRKGKSNAIGMLFGDPSSGFQSRLHHAALQACNDAGYFLTAGLFREEEDNWDEQLTQFLNRTSIEKMILVPPLCGSTALHDRLIEQGASFVLVSPSRAVAVAHAVCMDDRRAAREITEHLLGLGHRRIAHITGPSDHAATRLRREGFEDAMRAVGDGALRPDWIRPGLFRFKPALECARQILTGPDRPTAIFAANDEMAAAVCFAANSLGLRVPDDLSVVGFDDVAIATTMWPPLTTVAQPYAQMARESVRLLTEVGPPGDAGQAAEKVTIDHALKVRQSTAAEGHHHHHH | soluble |
| MSLARIIVVTSGKGGVGKTTSSAAIATGLAQKGKKTVVIDFDIGLRNLDLIMGCERRVVYDFVNVIQGDATLNQALIKDKRTENLYILPASQTRDKDALTREGVAKVLDDLKAMDFEFIVCDSPAGIETGALMALYFADEAIITTNPEVSSVRDSDRILGILASKSRRAENGEEPIKEHLLLTRYNPGRVSRGDMLSMEDVLEILRIKLVGVIPEDQSVLRASNQGEPVILDINADAGKAYADTVERLLGEERPFRFIEEEKKGFLKRLFGGEGHHHHHH | soluble |
| MSLARQVTAFNTGWQFKKGPFATDPMRAASQWDGKWETVEIPHTWNAMDMQVQSGSFYEGAGYYRKTQFFPHDLEGKRVFLRFEGVGACAEVYVNGKLAGTHKGGYSAFACEIGTALKLGAENEIIVKADNKARPDVIPVNQNLFGVYGGIYRPVWLIVTEQNNITVTDCASPGVYITQKDVSKKSADITVKVKLDNAGLQPAAVTLENTIYTQEGQKVGTHSRSFDLSPQGTQTYLSTFKLKNPHLWQGRKDPYLYKVVCRLMADGKVIDEVVQPLGVRKYEIVAGKGFFLNGEKYSMYGVTRHQDWWGLGSALKNEHHDFDLAAIMDVGATTVRFAHYQQSDYLYSRCDTLGLIIWAEIPCVNRVTGYETENAQSQLRELIRQSFNHPSIYVWGLHNEVYQPHEYTAALTRSLHDLAKTEDPDRYTVSVNGYGHMDHPVNLNADIQGMNRYFGWYEKKIQDIKPWVEQLEKDYPYQKLMLTEYGADANLAHQTEYLGDALNWGKPFYPETFQTKTHEYQWSIIKDHPYIIASYLWNMFDFAVPMWTRGGVPARNMKGLITFDRKTKKDSYFWYKANWSEEPVLYLTQRRNADREKRTTAVTVYSNIGTPKVYLNGQELSGIRNGYTDVHYVFDNVSLADGKNILKAVVSTKGKEYTDEIEWNYSGEKNREIDSYENKNEHSGEGHHHHHH | soluble |
| MSLATARTYLASLTVATEDRTGYDRDLFPHWITQSGTCNTRETILKRDGTNVVTDSSCAATSGSWYSPYDGATWSASSDVDIDHMVPLAEAWDSGADSWTTSRRQSFANDLTRPQLLAVTDNVNQSKGDQDPATWMPSRSAYRCTYVRAWVQVKYYYDLSVDSAEKSAMQGYLANCEGHHHHHH | not soluble |
| MSLATIKDVAQRAGVSPSTASRAMHGSKIISKPTRDKVIKAARELNYAPDFNAQNLATKASNTIGVVLPVDHHEIFSNPFFLEMIRGINEVCSKNGAMTTLATGISSDELVHNIDVMIAQGHIKTFILLYSEKNDPVVERLKQFDVQYVVIGKPYQDVNKTSYVDNDNIQAGTDAAQYLIDHGHRRIGFLYSDLSRMVQSDRMLGYQRVMMQNQLPNIMLEERFETHAAGVKTLHKFFEQYPDVTGFVAVDDMLALKLQQVLHNDPNWKVKQFSLIGFNNSIFSDLAHPMLTSIAVFPQRLGEEAAKIAMADHPADELSTAVIVPHQIVKRHSVHQIKSEGHHHHHH | soluble |
| MSLAVFAARKWKYNEDKMMTIVRIDAEARWSDVVIHNNTLYYTGVPENLDADAFEQTANTLAQIDAVLEKQGSNKSSILDATIFLADKNDFAAMNKAWDAWVVAGHAPVRCTVQAGLMNPKYKVEIKIVAAVEGHHHHHH | soluble |
| MSLAYQSEYALENEMMNQLEQLGYERVTIRDNKQLLDNFRTILNERHADKLEGNPLTDKEFQRLLTMIDGKSIFESARILRDKLPLRRDDESEIYLSFLDTKSWCKNKFQVTNQVSVEDTYKARYDVTILINGLPLVQVELKRRGIDINEAFNQVKRYRKQNYTGLFRYIQMFIISNGVETRYFSNNDSELLKSHMFYWSDKQNNRINTLQSFAESFMRPCQLAKMISEGHHHHHH | soluble |
| MSLCDVLQMARSTYYYEAKIRDDQDEELSELIVDIFKNSRDNYGQRKIKIELRKKGWTVSRRRIGRIMKEQGLVSKYTVAQFKPAKTSCNESEIGNTLNREFNQEQELKVVVSDLTYVRVQQKWHYICVLVDLYNREIIGYSAGPHKSAELVQRAFASVKYNLQRLELFHTDRGSEFKNKLIDQALETFGIERSLSEKGTPYDNAVAEATFKTIKTEFVRGAVFSSQQELDLELFDYVHWFNTIRIHGSLDYLTPTEYKLMNLEGHHHHHH | not soluble |
